Reference: EP4814009A1 (Medpacto Inc., dated 2026)

Molecular target: T1, biotinylated TGF-β1 (R&D Systems, Catalog #NFTG0) (UniProt P01137 279-390, biotinylated (sites not given))
T1 construct: Detection reagent of the sandwich ELISA, 1:50 diluted in PBS
Experiment: sandwich ELISA, simultaneous binding of EDB-FN-6x His (coated) and biotinylated TGF-β1

T1 sequence (P01137 279-390 limits assumed): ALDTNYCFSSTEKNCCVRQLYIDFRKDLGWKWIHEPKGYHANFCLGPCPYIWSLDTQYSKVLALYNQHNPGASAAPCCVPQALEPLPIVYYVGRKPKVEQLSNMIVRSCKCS

- binding result: binds
B1: Anti-EDB-FN scFv-TGFβ Trap (other)
chain: EVQLLESGGGLVQPGGSLRLSCAASGFTFSSFSMSWVRQAPGKGLEWVSSISGSSGTTYYADSVKGRFTISRDNSKNTLYLQMNSLRAEDTAVYYCAKPFPYFDYWGQGTLVTVSSGGGGSGGGGSGGGGSEIVLTQSPGTLSLSPGERATLSCRASQSVSSSFLAWYQQKPGQAPRLLIYYASSRATGIPDRFSGSGSGTDFTLTISRLEPEDFAVYYCQQTGRIPPTFGQGTKVEIKSSSSGSSSSGSSSSGIPPHVQKSVNNDMIVTDNNGAVKFPQLCKFCDVRFSTCDNQKSCMSNCSITSICEKPQEVCVAVWRKNDENITLETVCHDPKLPYHDFILEDAASPKCIMKEKKKPGETFFMCSCSSDECNDNIIFSEEYNTSNPD
notes: L19 scFv fused onto the TGFβ Trap without Fc; also called Anti-EDB-FN scFv-TGFβ Trap without Fc fusion
